Results reported in patent US20110212097A1.

How the values were obtained:
[1] = molecular target: SOD1 oxidized with a mixture of ascorbate and copperchloride (Homo sapiens (Human)) (UniProt P00441); assay: ELISA rep3; 6 hr CuCl
BSA control in PBS [2] = molecular target: BSA control in PBS (UniProt P02769); assay: ELISA rep1; BSA-PBS
[3] = molecular target: SOD1 oxidized with a mixture of ascorbate and copperchloride (Homo sapiens (Human)) (UniProt P00441); assay: ELISA rep2; 0 hr CuCl
[4] = molecular target: SOD1 oxidized with H2O2 (Homo sapiens (Human)) (UniProt P00441); assay: ELISA rep2; 1 mM H2O2
BSA control in PBS [5] = molecular target: BSA control in PBS (UniProt P02769); assay: ELISA rep3; BSA-PBS
[6] = molecular target: SOD1 oxidized with H2O2 (Homo sapiens (Human)) (UniProt P00441); assay: ELISA mean; 100 uM H2O2
[7] = molecular target: SOD1 oxidized with a mixture of ascorbate and copperchloride (Homo sapiens (Human)) (UniProt P00441); assay: ELISA rep1; 6 hr CuCl
[8] = molecular target: SOD1 oxidized with H2O2 (Homo sapiens (Human)) (UniProt P00441); assay: ELISA mean; 1 mM H2O2
[9] = molecular target: SOD1 oxidized with H2O2 (Homo sapiens (Human)) (UniProt P00441); assay: ELISA rep3; 100 uM H2O2
[10] = molecular target: denatured or misfolded SOD1 (SOD1 in denaturation buffer with 6M GdnHCl) (Homo sapiens (Human)) (UniProt P00441); assay: ELISA rep1; SOD-Gnd
[11] = molecular target: SOD1 oxidized with a mixture of ascorbate and copperchloride (Homo sapiens (Human)) (UniProt P00441); assay: ELISA rep3; 1 hr CuCl
[12] = molecular target: denatured or misfolded SOD1 (SOD1 in denaturation buffer with 6M GdnHCl) (Homo sapiens (Human)) (UniProt P00441); assay: ELISA mean; SOD-Gnd
BSA control in PBS [13] = molecular target: BSA control in PBS (UniProt P02769); assay: ELISA rep2; BSA-PBS
BSA control in PBS [14] = molecular target: BSA control in PBS (UniProt P02769); assay: ELISA mean; BSA-PBS
[15] = molecular target: SOD1 oxidized with a mixture of ascorbate and copperchloride (Homo sapiens (Human)) (UniProt P00441); assay: ELISA mean; 6 hr CuCl
[16] = molecular target: natively folded SOD1 (SOD1 in PBS) (Homo sapiens (Human)) (UniProt P00441); assay: ELISA rep3; SOD-PBS
[17] = molecular target: SOD1 oxidized with H2O2 (Homo sapiens (Human)) (UniProt P00441); assay: ELISA rep1; 1 mM H2O2
[18] = molecular target: SOD1 oxidized with H2O2 (Homo sapiens (Human)) (UniProt P00441); assay: ELISA rep3; 10 mM H2O2
[19] = molecular target: SOD1 oxidized with a mixture of ascorbate and copperchloride (Homo sapiens (Human)) (UniProt P00441); assay: ELISA rep2; 1 hr CuCl
[20] = molecular target: SOD1 oxidized with a mixture of ascorbate and copperchloride (Homo sapiens (Human)) (UniProt P00441); assay: ELISA rep2; 3 hr CuCl
[21] = molecular target: natively folded SOD1 (SOD1 in PBS) (Homo sapiens (Human)) (UniProt P00441); assay: ELISA rep2; SOD-PBS
[22] = molecular target: natively folded SOD1 (SOD1 in PBS) (Homo sapiens (Human)) (UniProt P00441); assay: ELISA mean; SOD-PBS
[23] = molecular target: denatured or misfolded SOD1 (SOD1 in denaturation buffer with 6M GdnHCl) (Homo sapiens (Human)) (UniProt P00441); assay: ELISA rep2; SOD-Gnd
[24] = molecular target: SOD1 oxidized with a mixture of ascorbate and copperchloride (Homo sapiens (Human)) (UniProt P00441); assay: ELISA rep1; 1 hr CuCl
[25] = molecular target: SOD1 oxidized with a mixture of ascorbate and copperchloride (Homo sapiens (Human)) (UniProt P00441); assay: ELISA mean; 0 hr CuCl
[26] = molecular target: denatured or misfolded SOD1 (SOD1 in denaturation buffer with 6M GdnHCl) (Homo sapiens (Human)) (UniProt P00441); assay: ELISA rep3; SOD-Gnd
[27] = molecular target: SOD1 oxidized with H2O2 (Homo sapiens (Human)) (UniProt P00441); assay: ELISA rep2; 100 uM H2O2
[28] = molecular target: SOD1 oxidized with a mixture of ascorbate and copperchloride (Homo sapiens (Human)) (UniProt P00441); assay: ELISA rep3; 0 hr CuCl
[29] = molecular target: SOD1 oxidized with a mixture of ascorbate and copperchloride (Homo sapiens (Human)) (UniProt P00441); assay: ELISA rep1; 3 hr CuCl
[30] = molecular target: SOD1 oxidized with H2O2 (Homo sapiens (Human)) (UniProt P00441); assay: ELISA rep2; 10 mM H2O2
[31] = molecular target: SOD1 oxidized with a mixture of ascorbate and copperchloride (Homo sapiens (Human)) (UniProt P00441); assay: ELISA rep3; 3 hr CuCl
[32] = molecular target: SOD1 oxidized with a mixture of ascorbate and copperchloride (Homo sapiens (Human)) (UniProt P00441); assay: ELISA mean; 3 hr CuCl
[33] = molecular target: SOD1 oxidized with a mixture of ascorbate and copperchloride (Homo sapiens (Human)) (UniProt P00441); assay: ELISA mean; 1 hr CuCl
[34] = molecular target: SOD1 oxidized with a mixture of ascorbate and copperchloride (Homo sapiens (Human)) (UniProt P00441); assay: ELISA rep2; 6 hr CuCl
[35] = molecular target: SOD1 oxidized with H2O2 (Homo sapiens (Human)) (UniProt P00441); assay: ELISA rep1; 100 uM H2O2
[36] = molecular target: natively folded SOD1 (SOD1 in PBS) (Homo sapiens (Human)) (UniProt P00441); assay: ELISA rep1; SOD-PBS
[37] = molecular target: SOD1 oxidized with H2O2 (Homo sapiens (Human)) (UniProt P00441); assay: ELISA rep3; 1 mM H2O2
[38] = molecular target: SOD1 oxidized with H2O2 (Homo sapiens (Human)) (UniProt P00441); assay: ELISA rep1; 10 mM H2O2
[39] = molecular target: SOD1 oxidized with H2O2 (Homo sapiens (Human)) (UniProt P00441); assay: ELISA mean; 10 mM H2O2
[40] = molecular target: SOD1 oxidized with a mixture of ascorbate and copperchloride (Homo sapiens (Human)) (UniProt P00441); assay: ELISA rep1; 0 hr CuCl
[41] = molecular target: natively folded SOD1 (SOD1 in PBS) (Homo sapiens (Human)) (UniProt P00441); assay: ELISA, SOD1 minus BSA
[42] = molecular target: denatured or misfolded SOD1 (SOD1 in denaturation buffer with 6M GdnHCl) (Homo sapiens (Human)) (UniProt P00441); assay: ELISA, SOD1 minus BSA
[43] = molecular target: natively folded SOD1 (SOD1 in PBS) (Homo sapiens (Human)) (UniProt P00441); assay: ELISA rep2
[44] = molecular target: denatured or misfolded SOD1 (SOD1 in denaturation buffer with 6M GdnHCl) (Homo sapiens (Human)) (UniProt P00441); assay: ELISA rep2
BSA control in PBS [45] = molecular target: BSA control in PBS (UniProt P02769); assay: ELISA rep2
BSA control in GdnHCl [46] = molecular target: BSA control in GdnHCl (UniProt P02769); assay: ELISA rep2
[47] = molecular target: natively folded SOD1 (SOD1 in PBS) (Homo sapiens (Human)) (UniProt P00441); assay: ELISA rep1
[48] = molecular target: denatured or misfolded SOD1 (SOD1 in denaturation buffer with 6M GdnHCl) (Homo sapiens (Human)) (UniProt P00441); assay: ELISA rep1
BSA control in PBS [49] = molecular target: BSA control in PBS (UniProt P02769); assay: ELISA rep1
BSA control in GdnHCl [50] = molecular target: BSA control in GdnHCl (UniProt P02769); assay: ELISA rep1
[51] = molecular target: natively folded SOD1 (SOD1 in PBS) (Homo sapiens (Human)) (UniProt P00441); assay: ELISA mean
[52] = molecular target: denatured or misfolded SOD1 (SOD1 in denaturation buffer with 6M GdnHCl) (Homo sapiens (Human)) (UniProt P00441); assay: ELISA mean
BSA control in PBS [53] = molecular target: BSA control in PBS (UniProt P02769); assay: ELISA mean
BSA control in GdnHCl [54] = molecular target: BSA control in GdnHCl (UniProt P02769); assay: ELISA mean
[55] = molecular target: DSE-2-BSA antigen (human); assay: indirect ELISA Exp #1
[56] = molecular target: denatured or misfolded SOD1 (SOD1 in denaturation buffer with 6M GdnHCl) (Homo sapiens (Human)) (UniProt P00441); assay: ELISA, unfolded vs natively folded SOD1
[57] = molecular target: human transferrin (human) (UniProt P02787); assay: indirect ELISA, control antigen
UniProt P02787, sequence (P02787 20-698 limits assumed): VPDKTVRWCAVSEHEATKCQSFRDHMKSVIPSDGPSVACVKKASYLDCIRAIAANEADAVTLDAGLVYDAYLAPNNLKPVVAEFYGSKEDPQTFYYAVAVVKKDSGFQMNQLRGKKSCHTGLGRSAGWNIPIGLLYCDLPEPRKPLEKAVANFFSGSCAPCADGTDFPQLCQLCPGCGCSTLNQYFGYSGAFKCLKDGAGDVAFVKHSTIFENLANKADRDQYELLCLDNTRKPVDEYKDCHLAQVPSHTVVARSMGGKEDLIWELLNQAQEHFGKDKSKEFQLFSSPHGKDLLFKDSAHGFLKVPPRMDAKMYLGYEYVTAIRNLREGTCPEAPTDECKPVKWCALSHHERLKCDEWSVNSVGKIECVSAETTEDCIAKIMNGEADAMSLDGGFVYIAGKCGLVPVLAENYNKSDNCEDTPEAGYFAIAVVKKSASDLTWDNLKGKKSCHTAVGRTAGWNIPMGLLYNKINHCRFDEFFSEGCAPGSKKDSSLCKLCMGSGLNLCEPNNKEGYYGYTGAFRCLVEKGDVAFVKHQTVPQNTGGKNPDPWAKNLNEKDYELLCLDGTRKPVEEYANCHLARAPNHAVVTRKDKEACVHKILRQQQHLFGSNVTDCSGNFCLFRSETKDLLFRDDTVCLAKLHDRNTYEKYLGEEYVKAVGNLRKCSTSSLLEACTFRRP

[58] = molecular target: DSE-2-BSA antigen (human); assay: indirect ELISA Exp #2

## anti-DSE2 IgG mAb clone 10E11C11 (antibody)
[1]
  absorbance: 1.04
BSA control in PBS [2]
  absorbance: 0.12
[3]
  absorbance: 0.669
[4]
  absorbance: 0.752
BSA control in PBS [5]
  absorbance: 0.091
[6]
  absorbance: 0.473
[7]
  absorbance: 1.04
[8]
  absorbance: 0.77
[9]
  absorbance: 0.453
[10]
  absorbance: 1.24
[11]
  absorbance: 1.03
[12]
  absorbance: 1.24
BSA control in PBS [13]
  absorbance: 0.098
BSA control in PBS [14]
  absorbance: 0.103
[15]
  absorbance: 1.02
[16]
  absorbance: 0.389
[17]
  absorbance: 0.776
[18]
  absorbance: 0.878
[19]
  absorbance: 1.03
[20]
  absorbance: 1.06
[21]
  absorbance: 0.362
[22]
  absorbance: 0.369
[23]
  absorbance: 1.25
[24]
  absorbance: 1.02
[25]
  absorbance: 0.668
[26]
  absorbance: 1.23
[27]
  absorbance: 0.476
[28]
  absorbance: 0.664
[29]
  absorbance: 1.06
[30]
  absorbance: 0.84
[31]
  absorbance: 1.08
[32]
  absorbance: 1.07
[33]
  absorbance: 1.03
[34]
  absorbance: 0.987
[35]
  absorbance: 0.489
[36]
  absorbance: 0.357
[37]
  absorbance: 0.781
[38]
  absorbance: 0.836
[39]
  absorbance: 0.851
[40]
  absorbance: 0.67

## anti-DSE2 hybridoma clone 3H1 (antibody)
BSA control in PBS [2]
  absorbance: 0.078
[3]
  absorbance: 0.59
[4]
  absorbance: 0.717
[6]
  absorbance: 0.43
[7]
  absorbance: 1.38
[8]
  absorbance: 0.731
[41]
  S-N (F): 0.251 OD450
[42]
  S-N (U): 1.99 OD450
[43]
  OD450: 0.563 OD450
[44]
  OD450: 2.1 OD450
BSA control in PBS [45]
  OD450: 0.15 OD450
BSA control in GdnHCl [46]
  OD450: 0.162 OD450
[47]
  OD450: 0.257 OD450
[48]
  OD450: 2.19 OD450
BSA control in PBS [49]
  OD450: 0.161 OD450
BSA control in GdnHCl [50]
  OD450: 0.165 OD450
[10]
  absorbance: 2.29
[12]
  absorbance: 2.29
BSA control in PBS [13]
  absorbance: 0.076
BSA control in PBS [14]
  absorbance: 0.077
[15]
  absorbance: 1.43
[17]
  absorbance: 0.744
[51]
  OD450: 0.41 OD450
[52]
  OD450: 2.15 OD450
BSA control in PBS [53]
  OD450: 0.156 OD450
BSA control in GdnHCl [54]
  OD450: 0.164 OD450
[19]
  absorbance: 1.44
[20]
  absorbance: 1.62
[21]
  absorbance: 0.335
[22]
  absorbance: 0.338
[23]
  absorbance: 2.29
[24]
  absorbance: 1.59
[25]
  absorbance: 0.558
[27]
  absorbance: 0.425
[55]
  OD450: 1.98 OD450
[29]
  absorbance: 1.72
[30]
  absorbance: 0.726
[32]
  absorbance: 1.67
[33]
  absorbance: 1.51
[34]
  absorbance: 1.49
[56]
  U/F: 7.93 fold
[35]
  absorbance: 0.436
[36]
  absorbance: 0.34
[57]
  OD450: 0.081 OD450
[38]
  absorbance: 0.763
[39]
  absorbance: 0.745
[40]
  absorbance: 0.527
[58]
  OD450: 1.91 OD450
